Assay results reported in the DeepSol protein solubility set.

assay: soluble on expression in E. coli; label from the status in PepcDB or PDB records

Row | Sequence | soluble on expression in E. coli
1 | MGSDKIHHHHHHMGKHTKFGSSDDEGETETSVAKRQKDEKKEKKKEKRDRSRSPHKERERSPKRDRHPEKNESRRHDDRDQERRRDYGRNDRRDDRRGDGSWKTDRNDRNDRRNDFQRRDDKNRLSAEEIAAQRKALWGNKKVAGESSSSNTTDTASSSSEPATGGKNEKLWSSAIAATGVDSSKANKFMRLMGVKNAPKPTDDSSRLSDEKNRQDKMLNDLEKQYAIARETTHMGRGTGFGFGH | not soluble
2 | MGSDKIHHHHHHMGKLLTPDDLPIVRGRVYHLDLAPEELARRVIVVGDPDRVPVLAEELLALREVDRFHRGFRTITGVTAETGQRVSFVTSGIGAPSTEIVLNELAALNEVDFASMTRRERWQPLTLVRLGTSGGLNPVTPVGTLILTDYVVGLDNTALYYDIPLPDEACALLEEKVGSVLTGTELPGARFAGKIAPYAARSDRGLLASLTAAASTLELNWTRGLTISSAGFFAEQGRGVARVGTTQVNLLDAFERLASPWPGLELQNMEMEAGFFLHFLGGMRYRAAVVCVVINQRSSGVFMADYRRQVLDGARLILRAFKEYGDARAKSGALA | not soluble
3 | MGSDKIHHHHHHMGKPVSSPYYIGCSGWHYAHWVGAFYPPGLPSTGRLAFYAGRFHTVEINSSFYRLPSEKCLRAWHDGTPAGFLFALKASRFITHMKKLKDSEASLARLLGRAENLGEKLGPVLFQLPPHWRRNAKRLEGFLRVLPSGHRYAFEIRDPSWHHPEIYALLNAYNAAFCIFDIAGFQSPIQLTTDFAYIRLHGPSFAAYAGRYTTEALRAWAARIRTWGLRTVYVYFDNDQAAYATHNALELMGILGL | not soluble
4 | MGSDKIHHHHHHMGLAKTRSAAISGVTGVIVDVEANIGAGLPGTYIVGLADAAVAEARQRIKTAVNNSELPWPKTKVIVNLSPASLRKNGAQFDLGICMAIMAASGMHNPDCRDIENTLFLGEIGLDGAIKPISGLVPALLAARGAEIRNVVIPWGNAAEAMAVIDDSAMNVLVARSISEATEWLKGKDDLIAAHDVILDEHATKKQPHKVGDMQDVVGQSDAKKAAEIAVAGGHNIVMIGPPGSGKSMIAQRMAGLLPALTHTEMIEATAIHSVMGQAFNGPMTHPPFVAPHHSITKAALLGGGSGNLQPGAASLAHTGVLFLDEVSEIPANILDCLRMPLECGEIKLMRHRREVTFPARFQLVMATNPCRCAAELPSECRCSATTRARYLSNISGPLRDRLDIFVRTHAQGAVISDANQESSKSIAERVQSARERSEHRWRTAGFTVTTNAAMDPYHLRRHFPADEASMALLSSYLGDGELSQRGVDRALKVAWTLCDLEGKTRPDLGHTAYALELRDDCIRENAA | not soluble
5 | MGSDKIHHHHHHMGNILWVASYPKSGNTWVRAFLENYIQNAEQGVDINTMHKISTAESAAHRFQARLQDGRKTTDLSLDEICALRPAVQADIAMQAHGTTFVKTHNYLGTYKEYPLHNSSVTSGSIYIVRNPLDVTVSMANYFGYSIDETIAYMAEEMTGTPNEPENVPQVITSWSMHVSSWTQNPEEAKLVLRYEDILDDPKKVFRKIESFLGLKKDPNRLKNAIKHSSFAQLKAQESKRGFVEKHENAKSFFRQGSKNQWRQVLSDEQVAKIVEHHGEQMARFKYLPGKLR | not soluble
6 | MGSDKIHHHHHHMGQIRVSGLGKAYKQYPNRWSRLFEWLVPFSPPRHHLHWILREVEFTIEPGEAVGIVGVNGAGKSTLLKMIAGTTQPTCGEIRVAGRVAALLELGMGFHPDFTGRQNVFMAGQLLGMQVEEIQALMPDIEAFAEIGEAIEQPVRTYSSGMQMRLAFSVATARRPDILIVDEALSVGDAYFQHKSFERIRSFRKAGTTLLIVSHDRSAIQSICDSAILLEQGRMAMRGRPEEVMDYYNALLAEREGQTVRQEMLADGQVRTISGTGEAAILDVRMVDQRQRALEVVEVGQAVTLEVEVEVRQDIERLILGFMIKDRLGQPMYGINTHRLDKALTDLKAGERITYRFAFDMRLGKGHYSVALSLSRLDSHLDRNFEWRDYGLVFHVINNRQEDFVGCSWLGAETHISRSGEAALDPTSAESTP | not soluble
7 | MGSDKIHHHHHHMGQVSGCFATSYAEARQKFLAAARGAGATLAEFPHPTRRGSAGEDLAMDVAWVGPADARRVLIISSGVHGVEGFCGSGAQVALLSDSILLADCAEARLGLLVVHAVNPYGFSHLRRVNEDNVDLNRNFMDFAQPLPDNAPYAEIAPMLLPTHWPPSGEEQAQFMKAVAEKGMDWYQTAVSSGQYQDPKGLFYGGNKETWSNYTLRRVLARFGSARGSLRWIDIHTGLGPWGYGEPICMGPDDDGQLKRTRAIWGGEVTSIYDGSSSSARLTGLAWEAVPGTLPDVDYAGIALEFGTLPVAEVLDALRGDHWLYLHPEADENQRTLVRQAMWRAFYGDAYDWRAGVVEQVTEAVRKAMRAR | not soluble
8 | MGSDKIHHHHHHMGSSRKVIITCAVTGAIHTPSMSPYLPVTPDEVAQASIGAAEAGAAVIHLHARDPRDGRPTQDPAAFAEFLPRIKSNTDAVINLTTGGSPHMTVEERLRPATHYMPELASLNMGSMNFGLYPMLERFKEFAHGWEREHLERSRDLVFKNTFADIEFILKTCGGNGTRFEFECYDTSHLYNLAHFVDRKLATPPFFVQTVFGLLGGIGPHPEDLAHMRRTADRLFGADYVWSILGAGRHQIPLASIGAAQGANVRVGLEDSLWIAPGELAETNAAQVRKIRQVIEGLSLEVASPAEARTMLGLKGPQNVNF | not soluble
9 | MGSDKIHHHHHHMGYRLTRENLNTLFHKLKEDYLIYAPKRLIGKGAFSDTDRVRYDKINNVEEIEFDVKSDFSFKEILLPISETLFFFTEDSVKEAEGPKKGAIIFLRSCDINAVKRLDQIYLKNGFEDHYYKRIREKVKFVLMPCKTSFENCFCVSMGTNQADMYDASVELREEHFYIDNKEEKWKEFLKEVSLEELEVKPSFVMENKTKVKVPEGITTKIFKSKMWDEYDSRCINCGRCNFVCPTCTCFSMQDIFYTDNGKAGERRRVWASCMVDGFTNVAGGGSYRSKNGQRMRFKVMHKVYDYKKRNGYHMCVGCGRCDDICPEYISFSNCINKLKGAIKEVEDNE | not soluble
10 | MGSDKIHHHHHHMGYSFVHPTGVTLYNPEKAFNGYTLMSIRELGAGLIDMNGNVVRLWKDLHGFPNKLLPGGYVIGSLGIRDPAYGYQDQTDLVQVDWEGNVVWKFNRLEYIEDPDNKPQWMVRQHHDYQRDGNPVGYYIPGMECRTDGGNTLILCHENLFNTKISEKRLLDDCFIEVDWEGNILWSWRASDHFEEMNFSDAAKNAMYRNPNMLENGGGMGDWLHINSMSYLGPNQWYDAGDERFHPENIIWDGREANISAIIDKKSGVIVWQMGPDFSATKELRRIGQIIGQHHVHMIPKGLPGAGNILIFDNGSWGGYGTPSNVSKDGIKADHADRSRVIELNPVTMEVVWQLTASELGYKPAGIFDYRFYSPLTSSAQRLPNGNTLITEGTGFRVFEVTADHEVVWEFWSPFTNAVAPTVYRTYRYPYSYVPHLAKPQETPIPRLDIKTFRVPGAAAGQLANQIKVAGTTGYGDKQELCVSFGEEL | not soluble
11 | MGSDKIHHHHHHMHFFIRIKEKYIECIRGNINDMQTADYSMVSEIIGNPQRLGMLVFLMDGRFRTVNEVTKATNLKPNTVSLYLSHFEKISWLDDYFQGRWHYYRLANSEVASLIEKILVLSPKKKITYFNLNEEEKLLHTGRSCYNHLAGQLGVQLLCSMKTLNWIRQDGSAFQLTDKGQSNLNNALEIKFSFQEQKSWDFILPCMDWSERQLHLKGIVGKKILGAMLDKEWLYRPNRTRALALTYKGKEKFGDFLQIRA | not soluble
12 | MGSDKIHHHHHHMHHRSSPLSRCLNRPSLSENRLVERACLSVGRRPSSSRSRRQHAGRLALLLGTLAPAVVLAQAAPDTVAMPQGINLGGTSFMDGFGSTTPGWTVLEYLRYYDLDAIKNARGDNSPAFRDPQVGVSALLTQLIYVTPYSLGRGSLSFNTIIPLVNYDTSFAADSPVRLRSNGFGMGDISFGPALQMPPVMRDGRVFFFQRFALDLFAPVGKFDRDIAINQGTGFWSIAPQWAFTVQPTDNWEISARINYLYNFRTDRAGGVPPIPGFRFRNGQAGDAVWVNFASSVKVSEQLRVGVNGYFLQQLKDNRTNGERVADSKRMQLYLGPGLSWRVDAKNLFNLNLYIPLDVENSVAGNSVNLMYVHSL | not soluble
